Substitutions are numbered along the chain they refer to. Names may count otherwise.
B1: CDK4-WT (over-expressed) (protein)
chain: MATSRYEPVAEIGVGAYGTVYKARDPHSGHFVALKSVRVPNGGGGGGGLPISTVREVALLRRLEAFEHPNVVRLMDVCATSRTDREIKVTLVFEHVDQDLRTYLDKAPPPGLPAETIKDLMRQFLRGLDFLHANCIVHRDLKPENILVTSGGTVKLADFGLARIYSYQMALTPVVVTLWYRAPEVLLQSTYATPVDMWSVGCIFAEMFRRKPLFCGNSEADQLGKIFDLIGLPPEDDWPRDVSLPRGAFPPRGPRPVQSVVPEMEESGAQLLLEMLTFNPHKRISAFRALQHSYLHKDEGNPE
B2: Flag-CDK4-T172A (protein)
chain: B1 chain with T172A

How the values were obtained:
[1] = biological target: RUNX3 (Runt-related transcription factor 3) protein, Q13761
Chain of RUNX3 (Runt-related transcription factor 3) protein, Q13761 (Q13761 whole entry): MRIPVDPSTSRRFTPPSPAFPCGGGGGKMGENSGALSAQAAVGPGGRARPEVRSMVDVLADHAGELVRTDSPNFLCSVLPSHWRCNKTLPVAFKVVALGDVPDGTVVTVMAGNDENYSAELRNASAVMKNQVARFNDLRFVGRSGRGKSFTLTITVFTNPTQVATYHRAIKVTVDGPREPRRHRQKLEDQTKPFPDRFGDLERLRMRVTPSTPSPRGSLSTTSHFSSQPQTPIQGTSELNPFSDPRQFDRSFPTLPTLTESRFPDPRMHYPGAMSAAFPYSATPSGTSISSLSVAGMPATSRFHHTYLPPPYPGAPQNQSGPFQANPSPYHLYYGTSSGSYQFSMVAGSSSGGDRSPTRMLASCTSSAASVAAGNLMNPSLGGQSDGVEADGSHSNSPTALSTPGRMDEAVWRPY

Chain of Myc-RUNX3, Q13761 (Q13761 whole entry): as above

Row | Protein | phosphorylation of RUNX3 at Ser-356 (immunoblot) (Myc-RUNX3, Q13761) | phosphorylation of RUNX3 at Ser-356 (immunoblot) [1]
1 | B1 | The over-expressed CDK4-WT phosphorylated Myc-RUNX3 2 to 4 hours after serum stimulation | 
2 | B2 |  | did not phosphorylate the 356th serine of RUNX3
